{
  "source": "patent US20180066242A1",
  "biological_target": "dCas9(C)-FKBP-2×NLS-VP64 (split-4, N863A) (Streptococcus pyogenes)",
  "assay": "cell-based or functional assay",
  "data": [
    {"substance": "dCas9(N)-FRB-2×NES (split-4, D10A) (from UniProt Q99ZW2 1-535; P42345 2021-2113; Q05397 518-525)", "values": [
      {"measurement": "ASCL1 mRNA by qPCR, +rapamycin/-rapamycin ratio", "result": 77},
      {"measurement": "IL1RN mRNA by qPCR, +rapamycin/-rapamycin ratio", "result": 649},
      {"measurement": "MYOD1 mRNA by qPCR, +rapamycin/-rapamycin ratio", "result": 29}
    ]}
  ]
}
